Here are results for four molecules from patent publication US20210163582A1 (APRINOIA THERAPEUTICS, published 2021).

For experiment [1], the target named is Tau in 6-month-old rTg4510 brain lysate (UniProt P10636-6 2-383, limits assumed). Put plainly: cell-based or functional assay.
For experiment [2], the target named is T1, Tau species in AD (Alzheimer's disease) brain lysate (human, UniProt P10636-8 2-441, limits assumed).
T1 construct: Endogenous Tau of a tissue lysate, not a defined construct; also called AD Tau protein; AD brain homogenate
Description: dot-blot on spotted AD total brain lysate, antibody in 2-fold dilutions from 6×10^-8 M. As for the experimental part: To facilitate the therapeutic potentials of mAb005 and mAb037, humanization of mAb005 and mAb037 was performed by grafting the complementary determining regions (CDRs) of Variable Heavy chain (VH) and Variable Light chain (VL) into a human IgG4 S228P backbone (no Fab-arm exchange mutant, Silva et al., 2015 JBC). Four point-mutations were introduced in the nearby residues surrounding the CDRs to conserve the functionality of the resulting variants. Dot-blot analysis was performed to determine the EC₅₀ of each variant, compared with the original mouse/chimeric clones as well as to visualize the specificity to AD Tau protein compared with ND Tau protein. […] Dot-blot experiments were performed by spotting of ND and AD total brain lysates in triplicate, and antibody solutions were diluted serially by a dilution factor of 2 from a maximum concentration of 6×10⁻⁸ M. Summary graphs denote Mean±SD of 3 independent experiments for mAb005 and Mean±SD of triplicated wells.

T1 sequence (P10636 other isoform, or with tags, fused parts or gaps limits assumed): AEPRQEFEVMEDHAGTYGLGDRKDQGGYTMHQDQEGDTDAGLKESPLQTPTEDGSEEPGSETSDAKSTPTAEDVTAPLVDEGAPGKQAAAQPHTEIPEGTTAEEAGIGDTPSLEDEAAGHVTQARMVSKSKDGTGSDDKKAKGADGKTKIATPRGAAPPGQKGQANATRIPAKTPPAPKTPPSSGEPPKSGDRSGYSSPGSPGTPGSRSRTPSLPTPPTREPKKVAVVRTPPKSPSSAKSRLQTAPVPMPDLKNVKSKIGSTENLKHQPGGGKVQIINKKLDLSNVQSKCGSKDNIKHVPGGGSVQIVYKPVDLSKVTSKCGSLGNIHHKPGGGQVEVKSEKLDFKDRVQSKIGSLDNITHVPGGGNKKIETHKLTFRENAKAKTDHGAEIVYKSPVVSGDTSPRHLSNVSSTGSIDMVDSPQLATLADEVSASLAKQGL
Tau in 6-month-old rTg4510 brain lysate, sequence (P10636 other isoform, or with tags, fused parts or gaps limits assumed): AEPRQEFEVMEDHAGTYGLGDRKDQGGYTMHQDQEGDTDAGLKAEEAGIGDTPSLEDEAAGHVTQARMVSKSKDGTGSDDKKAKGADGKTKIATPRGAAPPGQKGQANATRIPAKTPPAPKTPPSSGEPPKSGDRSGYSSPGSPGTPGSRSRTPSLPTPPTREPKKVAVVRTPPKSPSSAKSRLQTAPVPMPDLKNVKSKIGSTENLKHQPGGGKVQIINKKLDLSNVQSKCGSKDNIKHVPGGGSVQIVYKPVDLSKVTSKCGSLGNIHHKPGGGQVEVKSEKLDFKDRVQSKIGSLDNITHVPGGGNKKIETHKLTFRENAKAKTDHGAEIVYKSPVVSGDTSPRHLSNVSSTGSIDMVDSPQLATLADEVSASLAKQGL

B1: mAb005 (antibody, V domains shown)
VH: EVQLVESGGGLVKPGGSLKLSCAASGFTFSDYGMHWVRQAPEKGLEWVAYSNSDSTTIYYADTVKGRFTISRDNAKSTLFLQMTSLRSEDTAMYYCGRSYYSNYVDYWGQGTTLTVSS
VL: DIVMTQIPLSLPVSLGDQASISCRSSQSLVHSNGNTYLHWYLQKPGQSPKLLIYKVSNRFSGVPDRFSGSGSGTDFTLKISRVEAEDLGVYFCFQSTHVPPTFGGGTKLEIK
notes: Mouse monoclonal from hybridoma; also called mouse mAb005; original mouse clone (of mAb005)
Regarding B1, in experiment [1], the “EC50 of inhibition of Tau seeding (Tau spots per cell in Tau-LM reporter cells)” value was determined as 72200 pM. This molecule also came in with a half-maximal effective concentration (EC50) in experiment [2] of 400 pM.

B2: Humanized mAb005 (antibody, V domains shown)
VH: EVQLVESGGGLVQPGGSLRLSCAASGFTFSDYGMHWVRQAPGKGLEWVAYSNSDSTTIYYADTVKGRFTISRDNAKNSLYLQMNSLRAEDTAVYYCGRSYYSNYVDYWGQGTLVTVSS
VL: DVVMTQSPLSLPVTLGQPASISCRSSQSLVHSNGNTYLHWYLQRPGQSPRLLIYKVSNRFSGVPDRFSGSGSGTDFTLKISRVEAEDVGVYFCFQSTHVPPTFGQGTKLEIK
notes: also called humanized variant of mAb005
On to B2, for which, in experiment [2], the EC50 came to 430 pM.

B3: mAb037 (antibody, V domains shown)
VH: EVQLQQSGPELVKPGASVKIPCKASGYTFTDYNMDWVKQSHGKSLEWIGDINPNTGGTIYNQKFKGKATLTVDKSSSTAYMELRSLTSEDTAVYYCAGEGPYYYGTTHPFAYWGQGTLVTVSA
VL: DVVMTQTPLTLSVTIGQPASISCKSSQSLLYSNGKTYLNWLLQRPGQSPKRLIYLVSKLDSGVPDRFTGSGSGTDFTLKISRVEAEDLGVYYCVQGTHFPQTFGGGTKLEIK
notes: Mouse monoclonal from hybridoma; also called mouse mAb037; original mouse clone (of mAb037)
With B3, the “EC50 of inhibition of Tau seeding (Tau spots per cell in Tau-LM reporter cells)” value in experiment [1] is 22900 pM. In experiment [2], this molecule gave an EC50 of 540 pM.

B4: Humanized mAb037 (antibody, V domains shown)
VH: QVQLVQSGAEVKKPGASVKVSCKASGYTFTDYNMDWVRQAHGQGLEWIGDINPNTGGTIYNQKFKGRATLTVDTSISTAYMELSRLRSDDTAVYYCAGEGPYYYGTTHPFAYWGQGTLVTVSS
VL: DVVMTQSPLSLPVTLGQPASISCKSSQSLLYSNGKTYLNWLLQRPGQSPRRLIYLVSKLDSGVPDRFSGSGSGTDFTLKISRVEAEDVGVYYCVQGTHFPQTFGGGTKLEIK
notes: also called humanized variant of mAb037
In experiment [2], B4 gave a concentration for a half-maximal effect (EC50) of 950 pM.

By EC50 is commonly meant the midpoint of the concentration-response curve. High values mean weaker potency, low ones greater potency.
